Measured values: article PMC9923014, “BIN2 phosphorylates the Thr280 of CO to restrict its function in promoting Arabidopsis flowering” (Frontiers in Plant Science, 2023)

Target: T1, MBP-BIN2 (Arabidopsis thaliana, UniProt Q39011 1-380)
T1 construct: also called BIN2-MBP; source: E. coli strain Transetta-DE3, purified
T1 sequence (looked up): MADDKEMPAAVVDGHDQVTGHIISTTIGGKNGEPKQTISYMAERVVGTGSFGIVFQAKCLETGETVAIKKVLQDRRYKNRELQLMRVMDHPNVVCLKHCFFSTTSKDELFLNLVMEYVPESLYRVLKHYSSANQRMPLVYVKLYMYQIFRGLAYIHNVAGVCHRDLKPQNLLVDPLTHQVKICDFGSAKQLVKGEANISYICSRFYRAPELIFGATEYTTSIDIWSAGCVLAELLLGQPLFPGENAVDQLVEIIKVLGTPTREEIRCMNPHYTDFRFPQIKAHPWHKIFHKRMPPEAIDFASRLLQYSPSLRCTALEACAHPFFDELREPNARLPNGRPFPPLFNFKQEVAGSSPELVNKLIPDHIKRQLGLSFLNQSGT
Assay: pull-down; MBP pull-down on amylose resin; purified GST-CO incubated with MBP or MBP-BIN2 overnight at 4°C; 20 mM Tris pH 8.0, NaCl, 1 mM EDTA; immunoblot with anti-MBP and anti-GST
Conditions: both partners purified

- binding result: binds
B1: GST-CO (natural protein, Arabidopsis thaliana, UniProt Q39057 1-373, looked up)
chain: MLKQESNDIGSGENNRARPCDTCRSNACTVYCHADSAYLCMSCDAQVHSANRVASRHKRVRVCESCERAPAAFLCEADDASLCTACDSEVHSANPLARRHQRVPILPISGNSFSSMTTTHHQSEKTMTDPEKRLVVDQEEGEEGDKDAKEVASWLFPNSDKNNNNQNNGLLFSDEYLNLVDYNSSMDYKFTGEYSQHQQNCSVPQTSYGGDRVVPLKLEESRGHQCHNQQNFQFNIKYGSSGTHYNDNGSINHNAYISSMETGVVPESTACVTTASHPRTPKGTVEQQPDPASQMITVTQLSPMDREARVLRYREKRKTRKFEKTIRYASRKAYAEIRPRVNGRFAKREIEAEEQGFNTMLMYNTGYGIVPSF
notes: also called CO-GST; source: E. coli strain Transetta-DE3, purified
